Measurements published in patent publication US20210024625A1 (published 2021).

B1: H1H29192P2 (antibody, V domains shown)
VH: QVQLVQSGAEVKKPGASVRVSCMASGYTFTGYYMHWVRQAPGQGLEWMGWINPNSGGTKYAQKFQGRVTMTRDTSISTAYMELSRLRSDDTAVYYCAREEVDDFWSGYLDYWGQGTLVTVSS
VL: not shown
B2: H1H29207P2 (antibody, V domains shown)
VH: EVQLVESGGGLVQPGGSLRLSCAASGFTFSSYAMNWVRQAPGKGLEWVSAVSGSADITNYADSVKGRFTISRDNSKHTLYLQMNSLRAEDTAVYYCAKDKVYNWNYGIYYGMDVWGQGTTVTVSS
VL: not shown
B3: H1H29215P2 (antibody, V domains shown)
VH: QVQLQQWGAGLLKPSETLSLTCAVSDESFSDYYWTWIRQPPGKGLEWIGEITHSGSTHYNPSLKSRVTLSVDTSKNHFSLSLNSVTAADTAIYYCARGGDYGGLLDYWGQGTLVTVSS
VL: not shown
B4: H1H29198P2 (antibody, V domains shown)
VH: QVQLVQSGAEVKKPGASVKVSCKVSGYTLTELSMHWVRQAPGKGLEWMGGFDPEHGKIIYAQKFQGRVTMTEDTSTDTAYMELSSLRSEDTAVYYCATFYNWNSYYFGMDVWGHGTTVTVSS
VL: not shown
B5: H1H29209P2 (antibody, V domains shown)
VH: QLQLQESGPGLVKPSETLSLTCTVSGGSISSRSHYWGWIRQPPGKGLEWIGSIYYSGSTYYNPSLKSRVTISVDTSKNQFSLKLSSVTAADTAVYYCARLGWYAEEAFEIWGQGTMVTVSS
VL: not shown
B6: H1H29214P2 (antibody, V domains shown)
VH: QLQLQESGPGLVKPSETLSLTCTVSGGSISSSSYYWGWIRQPPGKGLEWIGSIYYSGSTYYNPSLKSRVTISVDTSKNQFSLKLSSVTAADTAVYYCARQGRWERENFDYWGQGTLVTVSS
VL: not shown
B7: H1H29196P2 (antibody, V domains shown)
VH: EVQLVESGGDLVQPGGSLRLSCAASGFAVNGDYFSWVRQAPGKGLEWISVIYSSGNTYYADSVKGRFTISRHNSKNTLYLQMSSLRPEDTAVYYCARDFPPMSGADYWGQGTLVTVSS
VL: not shown

Key:
Test in all cases: cell-based or functional assay
[1] = target: PfRH5 from Plasmodium falciparum strain D10 (Plasmodium falciparum)
[2] = target: PfRH5 from Plasmodium falciparum strain Dd2 (Plasmodium falciparum)
[3] = target: PfRH5 from Plasmodium falciparum strain 7G8 (Plasmodium falciparum)
[4] = target: PfRH5 from Plasmodium falciparum strain W2-mef (Plasmodium falciparum)
[5] = target: PfRH5 from Plasmodium falciparum strain HB3 (Plasmodium falciparum)
[6] = target: PfRH5 from Plasmodium falciparum strain FCR-1/FVO (Plasmodium falciparum)
[7] = target: PfRH5 from Plasmodium falciparum strain Cam3.II (Plasmodium falciparum)
[8] = target: PfRH5 from Plasmodium falciparum strain RF7 (Plasmodium falciparum)

| Binder | Max growth inhibition (%) [1] [%] | Max growth inhibition (%) [2] [%] | Max growth inhibition (%) [3] [%] | Max growth inhibition (%) [4] [%] | Max growth inhibition (%) [5] [%] | Max growth inhibition (%) [6] [%] | Max growth inhibition (%) [7] [%] | Max growth inhibition (%) [8] [%] |
| --- | --- | --- | --- | --- | --- | --- | --- | --- |
| B1 | 8.7 | -15.2 | 12.4 | 4.35 | 5.62 | 15.1 | -3.38 | -7.69 |
| B2 | 73.9 | 61.3 | 58.7 | 65.2 | 49.3 | 69.2 | 45.3 | 31.1 |
| B3 | 35.8 | 22.8 | 33.2 | 37.2 | 30.1 | 54 | 27.2 | 11.3 |
| B4 | 4.38 | 10.1 | 5.31 | -3.61 | 15.5 | 11.1 | 14.7 | 1.53 |
| B5 | 72.7 | 38.1 | 49.9 | 39.6 | 52.4 | 19.2 | 47.3 | 11.9 |
| B6 | 76.5 | 47.2 | 56.7 | 52.7 | 59.1 | 13.1 | 46.7 | 11.2 |
| B7 | 14.3 | -1.65 | 23.4 | 17 | 26.8 | 21.9 | 6.09 | 3.78 |
